Results on one substance are retold here after article PMC11053944, “FRET Assays for the Identification of C. albicans HSP90-Sba1 and Human HSP90α-p23 Binding Inhibitors” (Pharmaceuticals, 2024).

The target of assay [1] is C. albicans HSP90 (without fluorescent protein) (C. albicans) (UniProt P46598).
For assay [2] the target is unchanged. This is another data set of the same source.

Take “C. albicans Aha1 (from UniProt A0A1D8PU72 1-346) (natural protein)”: the HSP90 ATPase activity (ADP-Glo), 2.5 µM HSP90 with 1-20 µM Aha1, 1 mM ATP, 1 h at 30 °C; fold of HSP90 alone in assay [1] is 7 fold. For the same substance, the HSP90 ATPase activity (ADP-Glo), 2.5 µM HSP90 with Aha1 (20 µM) and Sba1 (20 µM) together, 1 mM ATP; fold of HSP90 alone in assay [2] is 1.9 fold.
